Results on one molecule are retold here after article doi:10.1101/406538 (bioRxiv, 2018).

The assay has as its target T1, ATI2-N, N-terminal region of ATG8 Interacting Protein 2 (M1-T193) (Arabidopsis thaliana, UniProt Q8VY98 1-193).
T1 sequence (looked up): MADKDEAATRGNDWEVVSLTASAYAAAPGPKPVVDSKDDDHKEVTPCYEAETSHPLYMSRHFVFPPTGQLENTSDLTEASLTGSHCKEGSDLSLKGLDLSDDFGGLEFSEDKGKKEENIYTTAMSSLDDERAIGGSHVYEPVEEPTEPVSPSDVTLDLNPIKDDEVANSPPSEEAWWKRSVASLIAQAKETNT
Kind of assay: NMR titration.

B1: ATG8f, processed form (1-117), recombinant (natural protein, Arabidopsis thaliana, UniProt Q8VYK7 1-117, looked up)
chain: MAKSSFKQEHDLEKRRAEAARIREKYPDRIPVIVEKAEKSDIPTIDKKKYLVPADLTVGQFVYVIRKRIKLSAEKAIFIFVDNVLPPAGALMSSVYEEKKDDDGFLYVTYSGENTFG
On to B1, for which the binding result was “binds”.
